Experimental data published in PMC7687367.

Columns and labels:
[1] = molecular target: SARS-CoV RBD, His-tagged, for antibody binding studies (SARS-CoV) (UniProt P59594); experiment: BLI
[2] = molecular target: SARS-CoV-2 RBD, His-tagged, for antibody binding studies (SARS-CoV-2) (UniProt P0DTC2); experiment: BLI

Row | Substance | Kd [1] [nM] | Kd [2] [nM]
1 | COVA1-16 Fab, His-tagged | 405 | 46
2 | COVA1-16 IgG1 antibody | 125 | 0.2
